Drawing on PMC9352680, “A comprehensive thermodynamic model for RNA binding by the Saccharomyces cerevisiae Pumilio protein PUF4”, this text covers Kd for 47 molecules.

Positions count from the first letter of the chain named. Names may count otherwise.

The labels stand for the following.
T1: PUF4 RNA-binding domain (Saccharomyces cerevisiae, UniProt P25339 537-888)
T1 sequence: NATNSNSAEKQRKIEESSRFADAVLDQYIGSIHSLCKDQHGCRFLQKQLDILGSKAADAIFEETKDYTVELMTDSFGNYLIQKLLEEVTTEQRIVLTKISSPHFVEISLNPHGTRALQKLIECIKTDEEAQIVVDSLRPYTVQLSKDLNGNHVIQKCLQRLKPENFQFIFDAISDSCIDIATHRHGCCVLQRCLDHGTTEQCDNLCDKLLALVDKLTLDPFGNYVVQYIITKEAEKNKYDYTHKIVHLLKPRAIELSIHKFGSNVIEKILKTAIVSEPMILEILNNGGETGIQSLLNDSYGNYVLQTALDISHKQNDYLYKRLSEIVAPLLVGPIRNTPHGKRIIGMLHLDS

B1: Ie_S2_P3E.2_K3.1_C3.2_H3.1_A3.1_F3.1_[+8TTC]_T3.2 (ssRNA)
RNA: UUUGAUUAAUAUGAUAUCGUUCUUUCUCUUGUAUAUAUUCUAUUCUUUCUCGAUAUCAUAUUAAUCUUU
B2: Ie_S2_P3E.2_K3.1_C3.2_H3.1_A3.1_F3.1_[+8TCT]_T3.2 (ssRNA)
RNA: B1 RNA with U39C, C40U
B3: Ic_S2_P3E.1_K3.1_C3.1_H3.1_A3.1_[A6G]_F3.1_[A8G]_T3.1 (ssRNA)
RNA: UUUGAUUAAUAUGAUAUCGUUCUUUCUUGUAUGUGUUCUUUCUCGAUAUCAUAUUAAUCUUU
B4: Ib_S2_P3E.1_K3.1_C3.1_H3.1_A3.1_[A6G]_F3.1_[A8C]_T3.1 (ssRNA)
RNA: B3 RNA with G35C
B5: Ib_S2_P3E.1_K3.1_C3.1_H3.1_A3.1_[A6T]_F3.1_[A8G]_T3.1 (ssRNA)
RNA: B3 RNA with G33U
B6: Ib_S2_P3E.1_K3.1_C3.1_H3.1_A3.1_[A6C]_F3.1_[A8G]_T3.1 (ssRNA)
RNA: B3 RNA with G33C
B7: Ie_S2_P4E.1_K4.1_C4.1_H4.1_[+1TCTCT]_A4.1_F4.1_T4.1 (ssRNA)
RNA: UUUGAUUAAUAUGAUAUCGUUCUUUCUUUCUCUGUAUAUUAUUCUUUCUCGAUAUCAUAUUAAUCUUU
B8: Ie_S2_P4E.1_K4.1_C4.1_H4.1_[+3TTCCT]_A4.1_F4.1_T4.1 (ssRNA)
RNA: B7 RNA with U29G, C30U, C32U, U33C, G34C
B9: Ie_S2_P4E.1_K4.1_C4.1_H4.1_[+1CCCTT]_A4.1_F4.1_T4.1 (ssRNA)
RNA: B7 RNA with U29C, U31C, C32U
B10: Ie_S2_P4E.1_K4.1_C4.1_H4.1_[+2CTCTC]_A4.1_F4.1_T4.1 (ssRNA)
RNA: B7 RNA with U29G, G34C
B11: Ie_S2_P4E.1_K4.1_C4.1_H4.1_[+3TCTCT]_A4.1_F4.1_T4.1 (ssRNA)
RNA: B7 RNA with U29G, C30U, G34C
B12: Ie_S2_P4E.1_K4.1_C4.1_H4.1_[+3CTCTC]_A4.1_F4.1_T4.1 (ssRNA)
RNA: B7 RNA with U29G, C30U, U31C, C32U, U33C, G34U, U35C
B13: Ie_S2_P4E.1_K4.1_C4.1_H4.1_[+2CCTCT]_A4.1_F4.1_T4.1 (ssRNA)
RNA: B7 RNA with U29G, U31C, C32U, U33C, G34U
B14: Ie_S2_P4E.1_K4.1_C4.1_H4.1_[+1CCTCT]_A4.1_F4.1_T4.1 (ssRNA)
RNA: B7 RNA with U29C
B15: Ie_S2_P4E.1_K4.1_C4.1_H4.1_[+3CCCTT]_A4.1_F4.1_T4.1 (ssRNA)
RNA: B7 RNA with U29G, C30U, U31C, U33C, G34U
B16: Ie_S2_P4E.1_K4.1_C4.1_H4.1_[+1TTCCT]_A4.1_F4.1_T4.1 (ssRNA)
RNA: B7 RNA with C30U, U31C
B17: Ie_S2_P4E.1_K4.1_C4.1_H4.1_[+2TCTCT]_A4.1_F4.1_T4.1 (ssRNA)
RNA: B7 RNA with U29G, C30U, U31C, C32U, U33C, G34U
B18: Ie_S2_P4E.1_K4.1_C4.1_H4.1_[+1CCTC]_A4.1_F4.1_T4.1 (ssRNA)
RNA: UUUGAUUAAUAUGAUAUCGUUCUUUCUUCCUCGUAUAUUAUUCUUUCUCGAUAUCAUAUUAAUCUUU
B19: Ie_S2_P4E.1_K4.1_C4.1_H4.1_[+2CTCT]_A4.1_F4.1_T4.1 (ssRNA)
RNA: B18 RNA with C29G, G33U
B20: Ie_S2_P4E.1_K4.1_C4.1_H4.1_[+2TCTC]_A4.1_F4.1_T4.1 (ssRNA)
RNA: B18 RNA with C29G, C30U, U31C, C32U, G33C
B21: Ie_S2_P4E.1_K4.1_C4.1_H4.1_[+3CCCT]_A4.1_F4.1_T4.1 (ssRNA)
RNA: B18 RNA with C29G, C30U, U31C, G33C
B22: Ie_S2_P4E.1_K4.1_C4.1_H4.1_[+3CCTC]_A4.1_F4.1_T4.1 (ssRNA)
RNA: B18 RNA with C29G, C30U, U31C, G33U, U34C
B23: Ie_S2_P4E.1_K4.1_C4.1_H4.1_[+2CCCT]_A4.1_F4.1_T4.1 (ssRNA)
RNA: B18 RNA with C29G, U31C, G33U
B24: Ie_S2_P4E.1_K4.1_C4.1_H4.1_[+2TTCC]_A4.1_F4.1_T4.1 (ssRNA)
RNA: B18 RNA with C29G, C30U, G33C
B25: Ie_S2_P4E.1_K4.1_C4.1_H4.1_[+1CCCT]_A4.1_F4.1_T4.1 (ssRNA)
RNA: B18 RNA with U31C, C32U
B26: Ie_S2_P4E.1_K4.1_C4.1_H4.1_[+1T]_A4.1_F4.1_T4.1 (ssRNA)
RNA: UUUGAUUAAUAUGAUAUCGUUCUUUCUUUGUAUAUUAUUCUUUCUCGAUAUCAUAUUAAUCUUU
B27: Ie_S2_P4E.1_K4.1_C4.1_H4.1_[+2C]_A4.1_F4.1_T4.1 (ssRNA)
RNA: B26 RNA with U29G, G30C
B28: Ie_S2_P4E.1_K4.1_C4.1_H4.1_[+1CCT]_A4.1_F4.1_T4.1 (ssRNA)
RNA: UUUGAUUAAUAUGAUAUCGUUCUUUCUUCCUGUAUAUUAUUCUUUCUCGAUAUCAUAUUAAUCUUU
B29: Ie_S2_P4E.1_K4.1_C4.1_H4.1_[+3CTT]_A4.1_F4.1_T4.1 (ssRNA)
RNA: B28 RNA with C29G, C30U, U31C, G32U
B30: Ie_S2_P4E.1_K4.1_C4.1_H4.1_[+2CTT]_A4.1_F4.1_T4.1 (ssRNA)
RNA: B28 RNA with C29G, G32U
B31: Ie_S2_P4E.1_K4.1_C4.1_H4.1_[+1TTC]_A4.1_F4.1_T4.1 (ssRNA)
RNA: B28 RNA with C29U, C30U, U31C
B32: Ie_S2_P4E.1_K4.1_C4.1_H4.1_[+1TCT]_A4.1_F4.1_T4.1 (ssRNA)
RNA: B28 RNA with C29U
B33: Ie_S2_P4E.1_K4.1_C4.1_H4.1_[+3CTC]_A4.1_F4.1_T4.1 (ssRNA)
RNA: B28 RNA with C29G, C30U, U31C, G32U, U33C
B34: Ie_S2_P4E.1_K4.1_C4.1_H4.1_[+1CTT]_A4.1_F4.1_T4.1 (ssRNA)
RNA: B28 RNA with C30U
B35: Ie_S2_P4E.1_K4.1_C4.1_H4.1_[+2TCC]_A4.1_F4.1_T4.1 (ssRNA)
RNA: B28 RNA with C29G, C30U, U31C, G32C
B36: Ie_S2_P3E.2_K3.1_C3.2_H3.1_A3.1_F3.1_[+8TCTC]_T3.2 (ssRNA)
RNA: UUUGAUUAAUAUGAUAUCGUUCUUUCUCUUGUAUAUAUCUCUAUUCUUUCUCGAUAUCAUAUUAAUCUUU
B37: Ie_S2_P3E.2_K3.1_C3.2_H3.1_A3.1_F3.1_[+8CCTC]_T3.2 (ssRNA)
RNA: B36 RNA with U38C
B38: Ie_S2_P3E.2_K3.1_C3.2_H3.1_A3.1_F3.1_[+8TTCC]_T3.2 (ssRNA)
RNA: B36 RNA with C39U, U40C
B39: Ie_S2_P3E.2_K3.1_C3.2_H3.1_A3.1_F3.1_[+8CTCTC]_T3.2 (ssRNA)
RNA: UUUGAUUAAUAUGAUAUCGUUCUUUCUCUUGUAUAUACUCUCUAUUCUUUCUCGAUAUCAUAUUAAUCUUU
B40: Ie_S2_P3E.2_K3.1_C3.2_H3.1_A3.1_F3.1_[+8TCTCT]_T3.2 (ssRNA)
RNA: B39 RNA with C38U, U39C, C40U, U41C, C42U
B41: Ie_S2_P3E.2_K3.1_C3.2_H3.1_A3.1_F3.1_[+8CCTCT]_T3.2 (ssRNA)
RNA: B39 RNA with U39C, C40U, U41C, C42U
B42: Ie_S2_P3E.2_K3.1_C3.2_H3.1_A3.1_F3.1_[+8TTCCT]_T3.2 (ssRNA)
RNA: B39 RNA with C38U, U41C, C42U
B43: Ie_S2_P3E.2_K3.1_C3.2_H3.1_A3.1_F3.1_[+8CCCTT]_T3.2 (ssRNA)
RNA: B39 RNA with U39C, C42U
B44: Ie_S2_P4E.1_K4.1_C4.1_H4.1_[+1TC]_A4.1_F4.1_T4.1 (ssRNA)
RNA: UUUGAUUAAUAUGAUAUCGUUCUUUCUUUCGUAUAUUAUUCUUUCUCGAUAUCAUAUUAAUCUUU
B45: Ie_S2_P4E.1_K4.1_C4.1_H4.1_[+2TC]_A4.1_F4.1_T4.1 (ssRNA)
RNA: B44 RNA with U29G, C30U, G31C
B46: Ie_S2_P4E.1_K4.1_C4.1_H4.1_[+2CT]_A4.1_F4.1_T4.1 (ssRNA)
RNA: B44 RNA with U29G, G31U
B47: Ie_S2_P4E.1_K4.1_C4.1_H4.1_[+3TT]_A4.1_F4.1_T4.1 (ssRNA)
RNA: B44 RNA with U29G, C30U, G31U

The series deals with T1, PUF4 RNA-binding domain. Briefly: Mg; RNA-MaP; 20 mM Na-HEPES pH 7.4, 30 mM KOAc, 0.75 mM MgCl2, 0.1% Tween-20, 5% glycerol, 0.1 mg/mL BSA, 2 mM DTT; 25 C; 0.0125-409.6 nM protein. Particulars: tags: N-His6-TEV cleaved; C-SNAP kept, Cy3B-labelled; label: tethered on chip by stalled RNA polymerase.
Usually Kd stands for the concentration at which binding is half-saturated. Low readings indicate higher affinity, high ones lower affinity. B1 registered a Kd of 2.96 nM. As for B2, the figure is 2.19 nM. As for B3, the figure is 44.9 nM. With B4 the figure was 90.1 nM; with B5, 37.8 nM. The molecule B6 showed a Kd of 14.7 nM. With B7 the figure was 0.249 nM; with B8, 17.5 nM; with B9, 0.12 nM. As for B10, the figure is 101 nM. With B11 the figure was 12 nM; with B12, 135 nM. In turn, B13 returned a Kd of 122 nM. Consider B14, for which the affinity, expressed as Kd, was 0.166 nM. With B15 the figure was 35.8 nM; with B16, 0.215 nM; with B17, 26.5 nM. As for B18, the figure is 5.67 nM. For B19, binding was characterised by a dissociation constant (Kd) of 47.4 nM. As for B20, the figure is 16.8 nM; as for B21, 41.4 nM; as for B22, 106 nM.

B23 registered a Kd of 127 nM.

B24 registered a Kd of 17.9 nM. With B25 the figure was 0.188 nM.

For the molecule B26, the dissociation constant Kd amounted to 0.232 nM. As for B27, the figure is 81.5 nM; as for B28, 0.245 nM.

Turning to B29, the Kd came out at 14.4 nM. With B30 the figure was 111 nM; with B31, 7.09 nM.

Molecule B32 came in with a Kd of 0.234 nM. As for B33, the figure is 9.57 nM. As for B34, the figure is 0.196 nM; as for B35, 10.9 nM. For B36, the Kd amounted to 3.5 nM. With B37 the figure was 4.3 nM. Regarding B38, the Kd was 2.56 nM. For B39, the Kd came to 5.38 nM.

B40 came in with a Kd of 3.44 nM.

The molecule B41 yielded a Kd of 4.17 nM. With B42 the figure was 2.02 nM; with B43, 3.77 nM; with B44, 8.48 nM. As for B45, the figure is 27.8 nM; as for B46, 198 nM; as for B47, 34.1 nM.
